Measured values from publication PMC6761861 (Chemical Science, 2019).
Read-outs that look alike come from different tables or passages of the source. No end group written: not given here.

Legend:
[1] = tested on: TMD5/TMD5 interaction (TMD5–ToxR); assay: Dominant-negative ToxR assay in bacterial membranes; type: cell-based, Epstein–Barr virus; details: co-expressed as ToxR* fusion with TMD5–ToxR in E. coli FHK12; result in words
[2] = biological target: TMD5 (coumarin-labelled) (Epstein-Barr virus, UniProt P03230); assay: FRET assay; type: binding
[3] = tested on: NF-κB activity (LMP-1) in EBV positive B721 cells; details: read-out: IC50, inhibition of B721 cell NF-κB activity; cited from earlier work
[4] = biological target: coumarin-labelled LMP-1 transmembrane domain 5 (TMD5) peptide (Epstein-Barr virus); assay: FRET or BRET
[5] = biological target: coumarin-labelled LMP-1 transmembrane domain 5 (TMD5) peptide (Epstein-Barr virus); assay: FRET or BRET; remark: listed apart in the source
[6] = biological target: coumarin-labelled LMP-1 transmembrane domain 5 (TMD5) peptide (Epstein-Barr virus); assay: other fluorescence titration

Molecule: KKKK-VFLWLWLIWIFIDWKLWLLYWLL-KKKK [anti-TMD5 scramble]
- effect on TMD5 Miller unit [1]: did not inhibit the TMD5 Miller unit
- quenching of TMD5-coumarin fluorescence and FRET signal compared to anti-TMD5 ([2]; 1.0 mM C14 betaine micelles, 20 mM HEPES, pH 7.4, result in words): much less quenching of TMD5-coumarin fluorescence and weaker FRET signal from FITC emission

Molecule: N=C(N)c1ccc(C=Cc2ccc(C(=N)N)cc2O)cc1 [NSC259242]
- IC50 [3]: 29.6 ± 6.6 µM

Molecule: KKKKWWKLWYFLVWFLDLIILILLLWWKKKK [anti-TMD5]
- Kd [2]: 0.04 ± 0.0067 µM

Molecule: WWKLWYFLVWFLDLIILILLLWW (designed binder, also: FITC label, position not given here) [FITC-tagged anti-TMD5 peptide]
- Kd [4]: 0.0678 µM
- stoichiometry N [4]: 0.53
- Kd [5]: 40 µM
- stoichiometry N [5]: 0.44

Molecule: WWKLWYFLVWFLDLIILILLLWW (designed binder) [anti-TMD5 peptide (unlabelled)]
- EC50 [6]: 3.3 µM
